Results: patent US20040038304A1 (CATALENT PHARMA SOLUTIONS, published 2004)

Molecular target: T1, CEA antigen (UniProt P06731 35-685, limits assumed)
T1 sequence (looked up): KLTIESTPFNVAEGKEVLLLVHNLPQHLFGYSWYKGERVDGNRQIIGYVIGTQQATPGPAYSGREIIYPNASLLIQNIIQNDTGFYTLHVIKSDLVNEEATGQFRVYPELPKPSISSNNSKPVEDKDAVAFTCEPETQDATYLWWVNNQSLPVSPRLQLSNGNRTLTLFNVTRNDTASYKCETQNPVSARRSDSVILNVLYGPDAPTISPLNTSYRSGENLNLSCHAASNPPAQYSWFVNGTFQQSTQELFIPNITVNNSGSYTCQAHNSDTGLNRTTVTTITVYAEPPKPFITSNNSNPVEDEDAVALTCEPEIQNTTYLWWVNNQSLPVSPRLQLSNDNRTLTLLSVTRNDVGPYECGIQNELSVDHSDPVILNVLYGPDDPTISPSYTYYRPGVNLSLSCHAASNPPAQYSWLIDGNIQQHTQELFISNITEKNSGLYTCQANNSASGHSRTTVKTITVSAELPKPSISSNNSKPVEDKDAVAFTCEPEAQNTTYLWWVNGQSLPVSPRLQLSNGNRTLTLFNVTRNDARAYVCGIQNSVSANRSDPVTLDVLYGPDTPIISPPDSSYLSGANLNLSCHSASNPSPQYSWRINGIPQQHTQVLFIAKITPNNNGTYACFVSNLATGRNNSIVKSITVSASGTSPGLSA
Assay: ELISA, plates coated with CEA antigen; MN14 as the standard
Protocol: Single colonies were made and from an initial 50 clones, 38 viable clones were obtained. The supernatants of these clones were analyzed for human kappa light chain, human Fc (IgG) and CEA antigen binding. For the huLC and huFc assay, the plates were coated with anti-huFab, for the CEA binding assay, the plates were coated with CEA antigen. All values are in ng/ml. Purified MN14 was used as a standard.

- binding result: binds
B1: MN14 antibody (antibody, V domains shown)
VH: EVQLVESGGGVVQPGRSLRLSCSASGFDFTTYWMSWVRQAPGKGLEWIGEIHPDSSTINYAPSLKDRFTISRDNAKNTLFLQMDSLRPEDTGVYFCASLYFGFPWFAYWGQGTPVTVSS
VL: DIQLTQSPSSLSASVGDRVTITCKASQDVGTSVAWYQQKPGKAPKLLIYWTSTRHTGVPSRFSGSGSGTDFTFTISSLQPEDIATYYCQQYSLYRSFGQGTKVEIKR
notes: Purified MN14 used as the standard of the assays; also called Purified MN14
